Positions count from the first letter of the chain named. Names may count otherwise.
T1: CNTFRα-myc (soluble extracellular domain of the CNTFRα receptor) (UniProt P26992 23-342)
T1 construct: extracellular domain; Captured on plates or protein A-Sepharose through the anti-myc antibody 9E10; also called CNTF receptor α; soluble CNTFRα receptor
T1 sequence (looked up): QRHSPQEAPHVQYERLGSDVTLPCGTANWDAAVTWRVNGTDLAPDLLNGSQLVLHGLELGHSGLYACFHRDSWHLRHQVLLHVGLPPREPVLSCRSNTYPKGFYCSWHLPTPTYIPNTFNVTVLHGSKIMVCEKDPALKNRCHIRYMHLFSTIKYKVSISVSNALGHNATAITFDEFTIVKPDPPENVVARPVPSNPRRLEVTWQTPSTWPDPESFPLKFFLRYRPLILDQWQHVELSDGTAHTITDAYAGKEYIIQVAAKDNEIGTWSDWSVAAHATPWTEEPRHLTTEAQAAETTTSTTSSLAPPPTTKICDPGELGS

T2: soluble LIFR (LIF receptor) (UniProt P42702 45-833, limits assumed, 35S-labelled in the test of FIG. 1B)
T2 construct: also called LIFR marked with 35S
T2 sequence (looked up): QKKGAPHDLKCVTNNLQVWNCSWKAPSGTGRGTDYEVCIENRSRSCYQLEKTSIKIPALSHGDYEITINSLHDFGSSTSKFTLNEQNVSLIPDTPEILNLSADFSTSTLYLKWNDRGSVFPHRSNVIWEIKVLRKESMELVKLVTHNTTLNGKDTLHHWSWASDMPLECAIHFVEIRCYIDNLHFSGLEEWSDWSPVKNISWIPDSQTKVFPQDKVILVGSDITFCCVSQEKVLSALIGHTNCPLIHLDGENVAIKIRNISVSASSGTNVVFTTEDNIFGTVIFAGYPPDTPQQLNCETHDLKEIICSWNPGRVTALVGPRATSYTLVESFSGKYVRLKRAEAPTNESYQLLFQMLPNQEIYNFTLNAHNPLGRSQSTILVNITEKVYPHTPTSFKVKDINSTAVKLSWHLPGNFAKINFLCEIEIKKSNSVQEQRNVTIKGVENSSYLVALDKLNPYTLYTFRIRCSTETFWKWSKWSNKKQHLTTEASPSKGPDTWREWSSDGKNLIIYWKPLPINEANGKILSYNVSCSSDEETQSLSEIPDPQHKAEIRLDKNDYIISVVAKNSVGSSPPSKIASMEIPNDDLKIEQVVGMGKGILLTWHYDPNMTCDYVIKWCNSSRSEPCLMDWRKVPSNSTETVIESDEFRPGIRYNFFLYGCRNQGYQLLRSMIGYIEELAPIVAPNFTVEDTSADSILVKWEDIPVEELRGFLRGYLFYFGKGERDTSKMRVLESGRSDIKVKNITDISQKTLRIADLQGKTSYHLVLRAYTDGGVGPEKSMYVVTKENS

T3: cellular LIF receptor on HepG2 cells (human, UniProt P42702 45-1097)
T3 sequence (looked up): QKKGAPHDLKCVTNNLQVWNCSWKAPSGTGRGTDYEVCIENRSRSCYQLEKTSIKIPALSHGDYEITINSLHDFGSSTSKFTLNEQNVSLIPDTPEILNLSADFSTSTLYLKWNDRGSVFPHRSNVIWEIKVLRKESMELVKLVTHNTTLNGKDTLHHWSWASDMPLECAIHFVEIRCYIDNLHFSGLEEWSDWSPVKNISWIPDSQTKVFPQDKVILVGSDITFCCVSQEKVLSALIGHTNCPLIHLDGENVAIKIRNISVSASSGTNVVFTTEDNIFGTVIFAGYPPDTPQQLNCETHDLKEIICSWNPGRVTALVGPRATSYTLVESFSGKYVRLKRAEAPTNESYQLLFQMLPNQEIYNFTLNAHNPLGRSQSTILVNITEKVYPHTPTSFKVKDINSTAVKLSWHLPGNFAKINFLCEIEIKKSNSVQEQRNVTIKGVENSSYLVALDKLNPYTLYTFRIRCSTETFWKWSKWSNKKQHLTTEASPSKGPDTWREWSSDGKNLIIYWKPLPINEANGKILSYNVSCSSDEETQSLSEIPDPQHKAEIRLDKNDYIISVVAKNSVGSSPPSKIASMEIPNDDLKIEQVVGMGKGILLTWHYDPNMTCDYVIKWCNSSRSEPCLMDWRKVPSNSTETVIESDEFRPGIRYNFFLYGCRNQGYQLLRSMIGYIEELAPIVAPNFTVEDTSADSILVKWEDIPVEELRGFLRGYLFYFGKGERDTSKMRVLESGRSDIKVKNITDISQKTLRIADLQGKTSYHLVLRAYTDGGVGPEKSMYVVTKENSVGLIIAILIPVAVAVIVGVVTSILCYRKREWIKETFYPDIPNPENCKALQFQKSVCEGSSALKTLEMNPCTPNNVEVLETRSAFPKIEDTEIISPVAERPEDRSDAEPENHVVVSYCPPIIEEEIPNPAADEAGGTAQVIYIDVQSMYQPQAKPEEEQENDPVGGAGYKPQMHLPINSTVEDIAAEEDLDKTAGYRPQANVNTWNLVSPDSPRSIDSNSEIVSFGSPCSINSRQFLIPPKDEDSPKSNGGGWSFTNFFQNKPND

T4: membrane-bound CNTFRα receptor on IMR-32 cells (human, UniProt P26992 23-342)
T4 sequence (looked up): T1 sequence (looked up)

B1: Lys155Ala/MUT-DH (ligand, human, UniProt P26441 1-200, looked up)
chain: MAFTEHSPLTPHRRDLCSRSIWLARKIRSDLTALTESYVKHQGLNKNINLDSADGMPVASTDQWSELTEAERLQENLQAYRTFHVLLARLLEDQQVHFTPTEGDFHQAIHTLLLQVAAFAYQIEELMILLEYKIPRNEADGMPINVGDGGLFEKALWGLKVLQELDHWTVRSIHDLRFISSHQTGIPARGSHYIANNKKM
notes: also called FADH-CNTF; FA/DH
B2: Phe152Ala/Lys155Ala/MUT-DH (ligand, human, UniProt P26441 1-200, looked up)
chain: B1 chain with F152A
notes: also called AADH-CNTF; AA/DH
B3: human ciliary neurotrophic factor (hCNTF) (ligand, UniProt P26441 1-200, looked up)
chain: B1 chain with A155K, D166S, H167Q
notes: also called wild-type CNTF; wt
B4: Phe152Ala/Lys155Ala/hCNTF (ligand, human, UniProt P26441 1-200, looked up)
chain: B1 chain with F152A, D166S, H167Q
notes: also called Phe152Ala/Lys155Ala/CNTF; AA-CNTF
B5: MUT-DH (Ser166Asp/Gln167His/CNTF) (ligand, human, UniProt P26441 1-200, looked up)
chain: B1 chain with A155K
notes: also called DH-CNTF; S166D/Q167H/CNTF
B6: Lys155Ala/CNTF (ligand, human, UniProt P26441 1-200, looked up)
chain: B1 chain with D166S, H167Q
notes: also called FA-CNTF
B7: Phe152Ala/MUT-DH (ligand, human, UniProt P26441 1-200, looked up)
chain: B1 chain with F152A, A155K
notes: also called AKDH-CNTF; AK/DH

Experiments:
[1] = target: T1, CNTFRα-myc (soluble extracellular …); assay: solid-phase competition with biotinylated CNTF or biotinylated MUT-DH for immobilised CNTFRα-myc, soluble gp130 present
Procedure: The ability of CNTF variants to compete with biotinylated CNTF ([…]) for binding to the extracellular domain of the CNTFRα receptor was determined in a solid-phase binding assay, in the presence of soluble gp130, as described in preceding publications (19). "Microtiter" 96-well polystyrene culture plates were covered with […] of 50 mM sodium carbonate pH 9.5, containing […] of the monoclonal antibody 9E10, which is directed against a c-myc epitope, and the plates are then preserved at 4° C. for one night. The wells were then washed out five times with TBS (50 mM Tris-HCl, pH 7.5, 150 mM NaCl) containing 0.05% Tween and held for 90 minutes at room temperature in TBSMT (50 mM Tris-HCl, 150 mM NaCl, 5% (w/v) lyophilised non-fat milk). All subsequent incubations were carried out at room temperature on a mixer at a speed of 700 rpm, after each incubation period the wells were washed with TBS containing 0.05% Tween (five times each time). The following incubation periods were performed: (1) 2 hours with […] TBSMT containing […] of CNTFRα-myc; (2) 1 hour with […] of TBSMT containing 200 ng of gp130-flag, 5 nM biotinylated CNTF, and the various competitors and (3) 45 minutes with […] of TBS, 5% (w/v) of bovine serum albumin, 0.05% (v/v) Tween 20 containing 0.8 mg/ml avidin conjugated with alkaline phosphatase.
The alkaline phosphatase activity was determined at 37° C. using 1 mg/ml p-nitrophenyl phosphate in 1 M of diethanolamine-HCl, pH 9.8, and absorbancy at 405 nm was measured after 40–60 minutes using a suitable reader. In some experiments the biotinylated MUT-DH variant molecule (0.5 nM) as used as a ligand.

[2] = target: T2, soluble LIFR (LIF receptor); assay: immunoprecipitation of 35S-LIFR with immobilised soluble CNTFRα and variant, SDS-PAGE (FIG. 1B)
Procedure: It is known from the literature that the molecules gp130 and LIFR are able to bind independently to the CNTF/CNTFRα complex (11). To assess the functional importance of D1 motif residues the ability of CNTF variants to assemble receptor complexes with the different subunits was assayed. Bonding of the cytokine/CNTFRα complex to gp130 or LIFR marked with ^35S was determined using immunoprecipitation tests as described in the literature (11). The soluble CNTFRα receptor was immobilised on A-Sepharose protein using the monoclonal antibody 9E10 anti-myc and incubated with soluble gp130 or LIFR marked with sulphur ^35S, in the absence or in the presence of different amounts of CNTF variants (1 or 0.1 mg). After washing, the bound material was eluted and subjected to SDS-PAGE.

[3] = target: T3, cellular LIF receptor on HepG2 cells; assay: cell-based or functional assay
[4] = target: T4, membrane-bound CNTFRα receptor on …; assay: cell-based or functional assay

Row | Binder | Relative Binding ((IC50 of CNTF)/(IC50 of tested protein)) [1] [ratio] | binding result [2] | haptoglobin secretion by HepG2 cells, without soluble CNTFRα (FIG. 2A) [3] | inhibition of Chat activity induced by a subsaturating dose of CNTF in IMR-32 cells (FIG. 4B) [4]
1 | B1 | 42 | no binding (tested: 1 or 0.1 mg) | ~20 % with respect to the maximum value | 
2 | B2 | 51 | no binding (tested: 1 or 0.1 mg) |  | 70 fold excess over CNTF for 50% inhibition
3 | B3 | 1 |  |  | 
4 | B4 | 0.9 |  |  | 
5 | B5 | 41 |  |  | 
6 | B6 | 1 |  | ~20 % with respect to the maximum value | 
7 | B7 | 32 | no binding (tested: 1 or 0.1 mg) | ~20 % with respect to the maximum value | 

From patent US6756357 (ISTITUTO DI RICHERCHE DI BIOLOGIA MOLECOLARE DI ANGELETTI S …, dated 2004)
